From article PMC7022901, “Back to GroEL-Assisted Protein Folding: GroES Binding-Induced Displacement of Denatured Proteins from GroEL to Bulk Solution” (Biomolecules, 2020)
Values belong to the binder of their own block, whether it stands above or below them.

What was measured:
[1] = target: T1, GroEL chaperonin (Escherichia coli, UniProt P0A6F5 1-548); experiment: native gel or EMSA; non-denaturing electrophoresis of GroEL with equimolar fluorescein-labeled denatured proteins in the presence of DTT and Mg-ADP, before and after 10 min incubation with a two-fold molar excess of GroES; Coomassie staining and fluorescence; conditions: both partners purified
T1 construct: GroEL (hsp60) chaperonin of Escherichia coli, expressed from the cloned groE operon; 14 identical subunits of 57 kDa in two heptameric rings; no tag is mentioned; also called hsp60; GroEL14; source: E. coli HB101, multicopy plasmid pGroE4 (groE operon of E. coli in pACYC184), purified; copies: 14

[2] = target: T1, GroEL chaperonin; experiment: FRET or BRET; streptavidin trap: denatured biotin- and fluorescein-labeled substrate diluted into equimolar GroEL, then streptavidin-aequorin and free biotin added; BRET (I520/I470) from aequorin to fluorescein reports substrate free in bulk solution; with or without 10 mM Mg-ATP and two-fold molar excess of GroES; conditions: both partners purified

T1 sequence (P0A6F5 whole entry): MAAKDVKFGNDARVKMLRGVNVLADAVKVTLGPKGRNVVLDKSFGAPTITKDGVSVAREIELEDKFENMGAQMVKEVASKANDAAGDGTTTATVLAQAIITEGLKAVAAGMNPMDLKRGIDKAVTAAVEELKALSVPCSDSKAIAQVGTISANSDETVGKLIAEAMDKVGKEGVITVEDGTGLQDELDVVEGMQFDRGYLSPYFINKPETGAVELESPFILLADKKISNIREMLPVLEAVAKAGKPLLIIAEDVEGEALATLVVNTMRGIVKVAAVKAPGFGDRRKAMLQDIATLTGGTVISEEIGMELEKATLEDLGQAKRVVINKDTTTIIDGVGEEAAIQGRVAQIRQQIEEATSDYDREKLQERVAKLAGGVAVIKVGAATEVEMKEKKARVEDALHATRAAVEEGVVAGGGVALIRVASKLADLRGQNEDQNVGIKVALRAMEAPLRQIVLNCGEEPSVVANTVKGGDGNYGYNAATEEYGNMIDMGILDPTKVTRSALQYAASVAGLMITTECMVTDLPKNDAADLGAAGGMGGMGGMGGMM

- binding result [1]: binds
B1: GroES co-chaperonin (natural protein, Escherichia coli, UniProt P0A6F9 1-97, looked up)
chain: MNIRPLHDRVIVKRKEVETKSAGGIVLTGSAAAKSTRGEVLAVGNGRILENGEVKPLDVKVGDIVIFNDGYGVKSEKIDNEEVLIMSESDILAIVEA
notes: GroES (hsp10) co-chaperonin of Escherichia coli, expressed from the cloned groE operon; 7 identical subunits of ~10 kDa; no tag is mentioned; also called hsp10; GroES7; source: E. coli HB101, multicopy plasmid pGroE4 (groE operon of E. coli in pACYC184), purified

- binding result [2]: binds
B2: biotin- and fluorescein-labeled pig mitochondrial malate dehydrogenase, early refolding intermediate (natural protein, UniProt P00346 25-338, looked up)
chain: AKVAVLGASGGIGQPLSLLLKNSPLVSRLTLYDIAHTPGVAADLSHIETRATVKGYLGPEQLPDCLKGCDVVVIPAGVPRKPGMTRDDLFNTNATIVATLTAACAQHCPDAMICIISNPVNSTIPITAEVFKKHGVYNPNKIFGVTTLDIVRANAFVAELKGLDPARVSVPVIGGHAGKTIIPLISQCTPKVDFPQDQLSTLTGRIQEAGTEVVKAKAGAGSATLSMAYAGARFVFSLVDAMNGKEGVVECSFVKSQETDCPYFSTPLLLGKKGIEKNLGIGKISPFEEKMIAEAIPELKASIKKGEEFVKNMK
modifications: fluorescein label (5(6)-FAM, SE); biotin (biotin succinimide ester)
notes: pig mitochondrial malate dehydrogenase; also called BFM; MDH; source: bought: Sigma or Serva, additionally purified by ion-exchange and size-exclusion chromatography
